From US20200255543A1 (ROCKEFELLER UNIVERSITY, published 2020)

Assays:
[1] = molecular target: T1, recombinant human MERTK (human, UniProt Q12866 21-505, limits assumed); experiment: biolayer interferometry, M19 loaded on AMQ sensor at 1 ug/mL, hMer in solution at 0.1563 nM, local 1:1 fit
T1 construct: Analyte in solution in biolayer interferometry; also called hMer
T1 sequence: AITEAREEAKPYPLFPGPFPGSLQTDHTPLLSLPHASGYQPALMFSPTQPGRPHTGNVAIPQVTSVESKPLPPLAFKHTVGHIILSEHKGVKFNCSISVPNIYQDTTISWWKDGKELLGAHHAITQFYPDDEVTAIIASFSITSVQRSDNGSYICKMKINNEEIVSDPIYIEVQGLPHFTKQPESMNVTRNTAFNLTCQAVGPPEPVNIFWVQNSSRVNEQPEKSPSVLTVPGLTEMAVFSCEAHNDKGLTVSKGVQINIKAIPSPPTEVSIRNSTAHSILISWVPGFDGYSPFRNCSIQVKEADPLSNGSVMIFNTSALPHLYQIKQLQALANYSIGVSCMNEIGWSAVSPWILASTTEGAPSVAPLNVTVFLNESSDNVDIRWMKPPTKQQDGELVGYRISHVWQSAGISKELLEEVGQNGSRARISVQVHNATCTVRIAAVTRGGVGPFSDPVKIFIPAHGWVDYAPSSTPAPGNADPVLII
Description: (§1) FIG. 7: M19 binds to human MERTK with high affinity. A diagram showing antibody binding kinetics for M19 (Mer-M19) against human MERTK (hMer) using biolayer interferometry. Purified M19 was loaded on an AMQ sensor at a concentration of 1 microgram/mL to test binding against analytes in solution. All analytes were prepared at 5 nM with a 2-fold dilution series for a total of 7 concentrations. Kinetic fits were calculated using a 1:1 model, with Local fits for each concentration as well as an overall global fit.
(§2) To characterize the binding affinity of M19 antibody against recombinant human and mouse MERTK, biomolecular interaction analysis was performed using biolayer interferometry (FIG. 7 and FIG. 8). Binding was observed between M19 and both mouse and human MERTK.

[2] = molecular target: T1, recombinant human MERTK; experiment: biolayer interferometry, M19 loaded on AMQ sensor at 1 ug/mL, hMer in solution at 2.5 nM, local 1:1 fit
Description: as §1, §2

[3] = molecular target: T2, recombinant mouse MERTK (mouse, UniProt Q60805 23-496, limits assumed); experiment: biolayer interferometry, M19 loaded on AMQ sensor, msMer analyte from 5 nM in 2-fold dilutions, 1:1 model, global fit
T2 construct: Analyte in solution in biolayer interferometry; also called msMer; murine MERTK
T2 sequence (looked up): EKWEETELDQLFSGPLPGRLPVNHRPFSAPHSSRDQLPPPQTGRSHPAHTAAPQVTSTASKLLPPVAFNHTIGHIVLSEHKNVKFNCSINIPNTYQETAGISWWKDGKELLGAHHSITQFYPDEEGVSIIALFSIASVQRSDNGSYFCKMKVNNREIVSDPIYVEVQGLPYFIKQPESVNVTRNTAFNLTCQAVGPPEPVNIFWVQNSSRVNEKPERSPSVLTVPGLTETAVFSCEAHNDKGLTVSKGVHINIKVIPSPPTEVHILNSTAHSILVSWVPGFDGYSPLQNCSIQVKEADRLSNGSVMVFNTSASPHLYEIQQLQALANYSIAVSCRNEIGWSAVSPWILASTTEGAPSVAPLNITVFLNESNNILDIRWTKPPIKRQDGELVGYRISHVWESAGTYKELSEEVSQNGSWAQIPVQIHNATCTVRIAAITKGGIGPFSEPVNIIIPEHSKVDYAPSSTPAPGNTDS
Description: as §1, with “8:” for “7:”, “murine” for “human”, “(msMer)” for “(hMer)”, “Global” for “global”

[4] = molecular target: T2, recombinant mouse MERTK; experiment: biolayer interferometry, M19 loaded on AMQ sensor at 1 ug/mL, msMer in solution at 0.3125 nM, local 1:1 fit
Description: as §1, with “8:” for “7:”, “murine” for “human”, “(msMer)” for “(hMer)”, “Global” for “global”
as §2

[5] = molecular target: T1, recombinant human MERTK; experiment: biolayer interferometry, M19 loaded on AMQ sensor at 1 ug/mL, hMer in solution at 0.0781 nM, local 1:1 fit
Description: as §1, §2

[6] = molecular target: T2, recombinant mouse MERTK; experiment: biolayer interferometry, M19 loaded on AMQ sensor at 1 ug/mL, msMer in solution at 2.5 nM, local 1:1 fit
Description: as §1, with “8:” for “7:”, “murine” for “human”, “(msMer)” for “(hMer)”, “Global” for “global”
as §2

[7] = molecular target: T1, recombinant human MERTK; experiment: biolayer interferometry, M19 loaded on AMQ sensor at 1 ug/mL, hMer in solution at 1.25 nM, local 1:1 fit
Description: as §1, §2

[8] = molecular target: T1, recombinant human MERTK; experiment: biolayer interferometry, M19 loaded on AMQ sensor at 1 ug/mL, hMer in solution at 0.3125 nM, local 1:1 fit
Description: as §1, §2

[9] = molecular target: T2, recombinant mouse MERTK; experiment: biolayer interferometry, M19 loaded on AMQ sensor at 1 ug/mL, msMer in solution at 0.625 nM, local 1:1 fit
Description: as §1, with “8:” for “7:”, “murine” for “human”, “(msMer)” for “(hMer)”, “Global” for “global”
as §2

[10] = molecular target: T2, recombinant mouse MERTK; experiment: biolayer interferometry, global fit; mouse MERTK
Description: as §1, with “8:” for “7:”, “murine” for “human”, “(msMer)” for “(hMer)”, “Global” for “global”

Kd [1]: 0.621 nM | koff [1]: 0.000949 s⁻¹ | kon [1]: 1.53e+06 M⁻¹ s⁻¹ | Kd [2]: 0.339 nM | koff [2]: 0.000899 s⁻¹ | kon [2]: 2.65e+06 M⁻¹ s⁻¹ | Kd [3]: 0.305 nM | Kd [4]: 0.115 nM | koff [4]: 0.00106 s⁻¹ | kon [4]: 9.23e+06 M⁻¹ s⁻¹ | Kd [5]: 0.0765 nM | koff [5]: 0.000934 s⁻¹ | kon [5]: 1.22e+07 M⁻¹ s⁻¹ | Kd [6]: 0.341 nM | koff [6]: 0.00159 s⁻¹ | kon [6]: 4.66e+06 M⁻¹ s⁻¹ | Kd [7]: 0.297 nM | koff [7]: 0.00102 s⁻¹ | kon [7]: 3.44e+06 M⁻¹ s⁻¹ | Kd [8]: 0.128 nM | koff [8]: 0.000968 s⁻¹ | kon [8]: 7.57e+06 M⁻¹ s⁻¹ | Kd [9]: 0.198 nM | koff [9]: 0.00137 s⁻¹ | kon [9]: 6.92e+06 M⁻¹ s⁻¹ | Kd [10]: ~0.3 nM
B1: monoclonal antibody M19 (antibody, V domains shown)
VH: EVQLEESGPDLKKPGETVKISCKASNYTFTDYSMHWVKQAPGKGLKWVGWINTDTGEPTYADDFKGRFAFSLETSASTAYLQINNLKNEDTATYFCARWFGAMDYWGQGTSVTVSS
VL: DIVITQSHKFMSTSVGDRVSITCKASQDVTNVVAWYQQKPGQSPKLLIYSASYRYTGVPDRFTGSGSGTDFTFTISSVQAEDLAVYYCQQYYRTPRTFGGGTKLEIKR
notes: Mouse hybridoma monoclonal antibody; Hybridoma supernatant was used in the ELISA screen, purified antibody in biolayer interferometry; also called Mer-M19
